Among the data in article PMC7943578 are stoichiometry N and stoichiometry N (x monomer mass) values, retold here.

In test [1] the target is CC-Type2-(LaIdGe)4. As to the kind of experiment: AUC; sedimentation equilibrium, 70 uM peptide, 20 C, PBS pH 7.4, single species model; self-association of the peptide.
Test [2] has as its target CC-Type2-(LaIdGe)4. As to the kind of experiment: AUC; sedimentation velocity with DPH, absorbance of DPH at 350 nm; 200 uM peptide, 5 uM DPH, 5% v/v DMSO in PBS pH 7.4, 25 C.
Test [3] has as its target CC-Type2-(LaIdGe)4. Briefly: AUC; sedimentation velocity with 25% v/v isopropanol, 150 uM peptide, PBS pH 7.4.
For test [4], the target named is CC-Type2-(LaIdGe)4. As to the kind of experiment: AUC; sedimentation equilibrium with 15% v/v isopropanol, 70 uM peptide, PBS pH 7.4, 30-45 krpm, single ideal species fit.
The target in test [5] is CC-Type2-(LaIdGe)4. Briefly: AUC; sedimentation velocity, 150 uM peptide, 20 C, 50 krpm, PBS pH 7.4; self-association of the peptide.
Test [6] deals with CC-Type2-(LaIdGe)4. As to the kind of experiment: SEC; Superdex75 10/300 GL, 25% v/v IPA in PBS, samples loaded at 150 uM, monitored at 220 nm.
Test [7] has as its target CC-Type2-(LaIdGe)4-W19BrPhe. As to the kind of experiment: crystal structure; vapour diffusion at 19 C; 0.05 M sodium HEPES, 5% w/v PEG 4000, 5% v/v 2-propanol, pH 7; SAD phasing on bromine.

In the case of CC-Type2-(LaIdGe)4 (peptide), the stoichiometry N with CC-Type2-(LaIdGe)4 [1], in the test with CC-Type2-(LaIdGe)4 [5] and with CC-Type2-(LaIdGe)4 [6] was 6 throughout. Also, the stoichiometry N (x monomer mass) was 6.2 with CC-Type2-(LaIdGe)4 [2], 5.5 with CC-Type2-(LaIdGe)4 [3] and 5.7 with CC-Type2-(LaIdGe)4 [4].
The substance CC-Type2-(LaIdGe)4-W19BrPhe (peptide) showed a stoichiometry N in test [7] of 6.
